Measured values reported in doi:10.1101/2022.06.02.494603 (bioRxiv, 2022).
Residue numbers refer to the chain shown, from its start. Names may count otherwise.

B1: TBK1 I710N, untagged (natural protein, human, UniProt Q9UHD2 1-729, looked up)
chain: MQSTSNHLWLLSDILGQGATANVFRGRHKKTGDLFAIKVFNNISFLRPVDVQMREFEVLKKLNHKNIVKLFAIEEETTTRHKVLIMEFCPCGSLYTVLEEPSNAYGLPESEFLIVLRDVVGGMNHLRENGIVHRDIKPGNIMRVIGEDGQSVYKLTDFGAARELEDDEQFVSLYGTEEYLHPDMYERAVLRKDHQKKYGATVDLWSIGVTFYHAATGSLPFRPFEGPRRNKEVMYKIITGKPSGAISGVQKAENGPIDWSGDMPVSCSLSRGLQVLLTPVLANILEADQEKCWGFDQFFAETSDILHRMVIHVFSLQQMTAHKIYIHSYNTATIFHELVYKQTKIISSNQELIYEGRRLVLEPGRLAQHFPKTTEENPIFVVSREPLNTIGLIYEKISLPKVHPRYDLDGDASMAKAITGVVCYACRIASTLLLYQELMRKGIRWLIELIKDDYNETVHKKTEVVITLDFCIRNIEKTVKVYEKLMKINLEAAELGEISDIHTKLLRLSSSQGTIETSLQDIDSRLSPGGSLADAWAHQEGTHPKDRNVEKLQVLLNCMTEIYYQFKKDKAERRLAYNEEQIHKFDKQKLYYHATKAMTHFTDECVKKYEAFLNKSEEWIRKMLHLRKQLLSLTNQCFDIEEEVSKYQEYTNELQETLPQKMFTASSGIKHTMTPIYPSSNTLVEMTLGMKKLKEEMEGVVKELAENNHNLERFGSLTMDGGLRNVDCL
B2: TBK1 L94S, untagged (natural protein, human, UniProt Q9UHD2 1-729, looked up)
chain: B1 chain with L94S, N710I
B3: TBK1 M559R, untagged (natural protein, human, UniProt Q9UHD2 1-729, looked up)
chain: B1 chain with M559R, N710I
B4: TBK1 Q565P, untagged (natural protein, human, UniProt Q9UHD2 1-729, looked up)
chain: B1 chain with Q565P, N710I
B5: TBK1 Q581H, untagged (natural protein, human, UniProt Q9UHD2 1-729, looked up)
chain: B1 chain with Q581H, N710I
B6: TBK1 R47H, untagged (natural protein, human, UniProt Q9UHD2 1-729, looked up)
chain: B1 chain with R47H, N710I
B7: TBK1 R134H, untagged (natural protein, human, UniProt Q9UHD2 1-729, looked up)
chain: B1 chain with R134H, N710I
B8: TBK1 R440Q, untagged (natural protein, human, UniProt Q9UHD2 1-729, looked up)
chain: B1 chain with R440Q, N710I
B9: TBK1 T4A, untagged (natural protein, human, UniProt Q9UHD2 1-729, looked up)
chain: B1 chain with T4A, N710I

These binders were tested against optineurin, C-terminal myc-FLAG-tagged (UniProt Q96CV9 1-577) (assay: co-IP).
optineurin, C-terminal myc-FLAG-tagged, sequence (Q96CV9 whole entry): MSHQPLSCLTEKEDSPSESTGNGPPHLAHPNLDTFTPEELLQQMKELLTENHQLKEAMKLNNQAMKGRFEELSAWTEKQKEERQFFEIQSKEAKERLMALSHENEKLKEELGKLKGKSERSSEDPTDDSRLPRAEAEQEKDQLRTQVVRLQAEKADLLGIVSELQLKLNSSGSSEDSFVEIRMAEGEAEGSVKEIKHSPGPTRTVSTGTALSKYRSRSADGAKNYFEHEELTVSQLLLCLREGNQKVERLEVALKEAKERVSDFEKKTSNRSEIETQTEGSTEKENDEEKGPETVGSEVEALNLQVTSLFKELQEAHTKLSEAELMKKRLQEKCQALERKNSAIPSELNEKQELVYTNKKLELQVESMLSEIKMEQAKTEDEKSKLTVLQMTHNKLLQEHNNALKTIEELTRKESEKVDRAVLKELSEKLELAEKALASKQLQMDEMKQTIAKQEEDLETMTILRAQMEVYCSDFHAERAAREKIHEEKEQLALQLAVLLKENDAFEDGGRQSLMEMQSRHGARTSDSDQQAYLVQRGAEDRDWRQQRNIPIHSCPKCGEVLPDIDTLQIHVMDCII

| Binder | TBK1 bound to OPTN relative to wild type |
| --- | --- |
| B1 | 0.07 relative to TBK1 WT |
| B2 | 0.04 relative to TBK1 WT |
| B3 | 0.05 relative to TBK1 WT |
| B4 | 0.14 relative to TBK1 WT |
| B5 | 0.2 relative to TBK1 WT |
| B6 | 3.23 relative to TBK1 WT |
| B7 | 2.53 relative to TBK1 WT |
| B8 | 0.17 relative to TBK1 WT |
| B9 | 1.93 relative to TBK1 WT |
